According to the supplement of paper PMC12042874:
± gives the uncertainty stated by the source.

Test: amyloid nucleation score (Sup35N fusion, yeast selection) (log enrichment); library NNK3; higher = more nucleation; inactive = no reads after selection
How it was run: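 Plasmid inserts were Illumina-sequenced at input and output from psi-negative yeast expressing Sup35N fused to peptides of 20 random codons. The yeast were induced with 100 μM copper sulfate for 24 hours and grown 7 days at 30°C on medium lacking adenine and uracil, and sequences with under 100 input reads were excluded. Nucleation score is the DiMSum log enrichment of output over input reads, centred on the mode score of non-aggregating sequences.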

| Substance | amyloid nucleation score |
| --- | --- |
| CIIFYCIYGFN | 3.04 ± 0.073 |
| CILSVHGGILLFSIGAAFGR | 0.779 ± 0.27 |
| CILYYLNSSMVIGTCLFILN | 1.36 ± 0.085 |
| CISKCLVNNV | inactive |
| CIYCIVA | 2.64 ± 0.087 |
| CIYGKVFF | 0.309 ± 0.28 |
| CKARTSASSNQHRESVYGLE | inactive |
| CKCEQVFLGLNLRYKEHDAW | inactive |
| CKFFQGKEEVS | inactive |
| CKILHDRHMYVCLFAYCFVC | inactive |
| CKRLPIACLTSLTKAR | inactive |
| CKTMFYY | inactive |
| CLDARYKMRV | inactive |
| CLFGHGY | inactive |
| CLFREA | inactive |
| CLFWMTWDVSRDS | inactive |
| CLGGQRHDVLPVCCWEFIME | inactive |
| CLGLHQILM | inactive |
| CLHLWGVFKFFDVYWIMLMG | inactive |
| CLMKIWLTVEGTSHRALGFR | inactive |
| CLNFFPSNSWILFILMIVQK | inactive |
| CLNGSCAMLSGLVCLLCNRQ | 2.38 ± 0.058 |
| CLRECWCSGNTTHGSHWSTC | inactive |

| Substance | amyloid nucleation score |
| --- | --- |
| CLSRSCSFFYKATYLRSEMM | inactive |
| CLSSSETPFSGDRTMA | -0.046 ± 0.52 |
| CLVSLVFRFIVY | inactive |
| CLYLAS | inactive |
| CMAFLHPLF | inactive |
| CMIHYSSRAILEMWLAPRMY | inactive |
| CMRLLTWIKPNWLLLVCLKT | inactive |
| CMVCYLLPGSVSTCSCVRGI | 2.75 ± 0.064 |
| CNFVNSKRNFLYTLG | inactive |
| CNHVLTNRLMHSSKNRCLFI | inactive |
| CNMDISVCYYRLLMWQRGFR | inactive |
| CNMGYSIFVFILNLSPV | 1.99 ± 0.09 |
| CNNMYRERNNFWILMEWSLL | inactive |
| CNPQTFSFVLMVRLCSKSGV | inactive |
| CNTPR | inactive |
| CNVNIHYFGTV | inactive |
| CNVRSFRFRCSGSPHSARSS | inactive |
| CNYFVF | inactive |
| CNYLTMSGF | inactive |
| CNYNGLESILR | inactive |
| CPCGNVGVFLGLTRTVKGKS | inactive |
| CPIWKDRDCFLLSIKYYALQ | -0.24 ± 0.31 |
| CPMVLSQEGSTAPEQCVGLG | inactive |

| Substance | amyloid nucleation score |
| --- | --- |
| CPTCESGKERGVKYVKFLNW | inactive |
| CPYLSSVLHDAQLKATFING | 1.11 ± 0.096 |
| CQGIMDRRTSKRMPIANMVQ | inactive |
| CQIKNGLDNQKTDYNSSPF | inactive |
| CQPNWGWCSARIVLHILVLR | inactive |
| CRFFSGFLRPRSNVGGNRYS | inactive |
| CRFVNLFGCVGS | inactive |
| CRGTEAGHPHVGIDHRARMV | -0.957 ± 1.8 |
| CRLSGEYFIDTDPEVFLALM | 0.397 ± 0.17 |
| CRRVTKFESAFTWIFCKSCD | -0.013 ± 0.39 |
| CRSGCAVYS | inactive |
| CRTHSDVVVSTHFMNAWLSI | inactive |
| CRVPSLVIC | inactive |
| CRVRGAVRSLLHTVFKVDWV | inactive |
| CRYQCRQLKVIVCSGDWNLV | inactive |
| CRYSSYVPVGLYKKWGICWM | inactive |
| CRYSYSELKFVLFSGVGTSD | inactive |
| CSFIGYHGFVCLSVDIVLGC | 1.51 ± 0.12 |
| CSGSDKVWTCLFLYAKKPRW | inactive |
| CSGYARTLS | inactive |
| CSGYSTNFGK | inactive |
| CSIGVRSVVCS | inactive |
| CSLIQSVRSTA | inactive |

| Substance | amyloid nucleation score |
| --- | --- |
| CSLRLVAFSACGV | inactive |
| CSNAGTCPCLCYRAILDQWV | -0.401 ± 0.84 |
| CSNRFSNHFMYYVSMLGDGL | inactive |
| CSPGRIFHNGK | inactive |
| CSRALYGCDRISRGLLEVCG | inactive |
| CSSGYIQKMVSRYMSYGYHF | inactive |
| CSTCISTNFSPY | inactive |
| CSVGS | inactive |
| CSVLC | inactive |
| CSVVWIMV | -0.852 ± 0.8 |
| CSYRRLIFILCD | inactive |
| CTFDWVLITLVEGSRAIW | inactive |
| CTHHKNACL | inactive |
| CTNCNAKAYPWGTVSMPREW | inactive |
| CTRNEYIEW | inactive |
| CTSLRLESPDFFSKRERSSN | inactive |
| CTTVDVGALVDGESNHCISL | inactive |
| CTYDSLRILAYRANQTNWFQ | -0.278 ± 0.47 |
| CVCPKANVEYPMACFRHIIV | inactive |
| CVGMEVCGWEGS | inactive |
| CVHYRFMLSRLYMILVPLTY | inactive |
| CVNLYVELKFNHFDFVS | 2.04 ± 0.09 |
| CVNVLQPGVTHSRMANLCSG | inactive |

| Substance | amyloid nucleation score |
| --- | --- |
| CVRYWKLGVVLRDG | inactive |
| CVSDNSS | -0.003 ± 0.8 |
| CVSGASKVNWGSCY | inactive |
| CVSSLIAKMGIVGCDGCYKG | inactive |
| CVTSVAWANKICARQLFGAD | 0.204 ± 0.37 |
| CVVNSGFNLSCMIVSQSVSL | inactive |
| CVVYIGCNATGFKC | 1.87 ± 0.059 |
| CWDEIHIMKAHIRSYGGSVS | inactive |
| CWDYWACGQGTA | inactive |
| CWRVYYLNVWVEVES | inactive |
| CWSSIYSNDQDFYWKSPLLS | inactive |
| CYADPG | inactive |
| CYCVGHAVLCRPEHLCSVRL | inactive |
| CYFQYGNWFHLEGRNRSRSN | 1.17 ± 0.19 |
| CYFVSVKLLTGVKLSHKYL | 1.25 ± 0.15 |
| CYGNSMIGVFRICFHSLVYV | inactive |
| CYMYVRNGHLEIFLMGLSGF | inactive |
| CYPVSVQYNGV | inactive |
| CYSCSMLFISWLCRYRSTQY | 1.02 ± 0.12 |
| CYSGCEWSTYMLMGVLKVVS | inactive |
| CYTMSNVRVPWKRGICYCGL | inactive |
| CYWVRDSRLGW | inactive |
| DACTVVCVCIQSIRGSQVSC | 1.09 ± 0.15 |

| Substance | amyloid nucleation score |
| --- | --- |
| DADTW | inactive |
| DAFYIFWLDTSWFRWYAGTS | -0.131 ± 0.61 |
| DAIIVSIAYILG | inactive |
| DAISVLCFLLKSFRWSTFRG | inactive |
| DANGCA | inactive |
| DAVGCNILACDSGGRDWTGG | -0.744 ± 1.2 |
| DCIYRDVCFNFTYMCKVNAQ | inactive |
| DCKLVDIDSLLVTFDR | inactive |
| DDFSVPTDLIDVRRVS | -0.047 ± 1 |
| DDIRCMFRTADFRAKMSVNS | inactive |
| DDVLYS | -0.19 ± 0.34 |
| DDVTHISLKKNSDNLGYNSR | inactive |
| DFARGYGDNALVFYLYGLMY | -0.684 ± 0.8 |
| DFFAHVNAIG | inactive |
| DFLFTNFSNSDLRGILCQSF | inactive |
| DFSSWSFYHYPLVGQSSYTS | inactive |
| DFTCDPSTLNSRRLSEDLIR | inactive |
| DFYEIRTSGCDLYMFRGVVA | inactive |
| DFYGYSY | inactive |
| DGAYYGLCMMFNVSVLMGII | 0.063 ± 0.51 |
| DGDFIWISYVRKPKVNNDMF | inactive |
| DGGCSKIVRQTLWLNPLGNS | inactive |
| DGKQVRGPGVAQSGANNGLE | inactive |

| Substance | amyloid nucleation score |
| --- | --- |
| DGLIECWDFNRIMGLNKQNK | -1.33 ± 1.9 |
| DGLYSTNQRSIAPHLTQPID | inactive |
| DGMFSFGSLCRYAELETSGK | inactive |
| DGMNSPRMEIRDRDRSAYIL | inactive |
| DGNFNQRYAHLDRSGCWL | inactive |
| DGRAWRALRGPK | inactive |
| DHFMNGMKQYTCRYFVLWPS | inactive |
| DHVGADMGLCDNVG | inactive |
| DIFCLVVTYAERLLYLKTRT | -0.09 ± 0.75 |
| DIFSRSVS | inactive |
| DIFTPILMLCWV | inactive |
| DIKVMNLCLNWFFRLIHGV | inactive |
| DILFDGESLFPYTENSWETR | inactive |
| DIQNFHQKTKGCLLFVWRRQ | inactive |
| DIRRSYTLVRTGFTV | inactive |
| DISFLSRSRYRKSHGVVNFS | 0.206 ± 0.43 |
| DISHKLNTTIVMYFREALRG | inactive |
| DISPYFLYE | inactive |
| DIYMMLICGWGLGKLIPGFM | inactive |
| DKDRVVSCMMTLLLSVGCAV | inactive |
| DKKGK | inactive |
| DLCVLAMASFEVAIAHGRPR | 0.172 ± 0.88 |
| DLIVILLTSYMYENVVVLNF | inactive |
